Results on 7 molecules are retold here after US20220202905A1, “COMPOSITION FOR PREVENTING OR TREATING NEUROTROPHIC KERATITIS WHICH CONTAINS PACAP PEPTIDE OR STABILIZED PACAP PEPTIDE” (SENJU PHARMACEUTICAL CO., LTD., priority 2019, published 2022).

Square brackets hold non-standard residues; d marks the D form. Peptide text beside a SMILES is read from it. * marks the point of attachment. Ala(1H-tetrazol-5-yl) = N[C@@H](Cc1nnn[nH]1)C(=O)O; Nle = CCCC[C@H](N)C(=O)O; Ms = CS(=O)(=O)*

Series [1] can be described thus: Peptide stability test, phosphate buffer (pH 7.0), 40° C. storage, HPLC remaining rate. In kind it is physicochemical. The following applies: for remaining rate after correction for water, 40° C., 1 month preservation / remaining rate after correction for water, 40° C., 2 months preservation: 100 μM in phosphate buffer pH 7.0; for stability in aqueous solution (in words), 40° C. storage: phosphate buffer pH 7.0, 1 or 2 months. As to the method: Peptides 1 and 3 to 5 synthesized in Example 2 were weighed and dissolved in phosphate buffer (pH 7.0) to prepare 1.0 mM peptide solutions. The 1.0 mM peptide solutions were then diluted with phosphate buffer to 100 μM. After filtering with Chromatdisk (product of Merck Millipore, Millex-GV, 0.22 μm), each filtrate was dispensed into an LC vial (Waters Deactivated […] prepared peptide solutions were incubated for one month or 2 months in a 40° C. thermostatic bath to obtain stored samples. A simultaneously prepared sample among the peptide solutions that was not stored was used as a standard sample (initial sample). The standard sample and the stored samples were stored at -30° C. until sample analysis. Using the total weight of the aqueous peptide solution and storage vessel as the specimen weight, measurements were recorded as the specimen weights before storage and the specimen weights after storage under different storage conditions. The empty weight of the storage vessel was also measured, and the moisture permeability was determined by the following formula. After stirring the standard sample and the stored samples with a vortex mixer, each peptide solution was transferred to an HPLC vial (Deactivated Qsert vial by Waters Co.). Reverse-phase HPLC (HPLC system: Prominence by Shimadzu Corp.) was conducted under the conditions shown in Table 3 below for analysis of the peptide solutions, and chromatograms were obtained. Guard column: XSelect CSH C18 by Waters Co., 5 μm, 4.6×20 mm Guard Cartridge Detection wavelength: 220 nm Mobile phase A: 0.1% formic acid aqueous solution Mobile phase B: 0.1% acetonitrile formate solution Measuring time: 30 minutes Measuring sample injection rate: 50 μL Flow rate: 1.0 mL/min Sample cooler: 4° C. Column temperature: 40° C. Mobile phase delivery: The mixing ratio of mobile phase A and mobile phase B was varied as shown in Table 3 for linear concentration gradient control. The peak area value for the peptide in the chromatogram was calculated, and the remaining rate (remaining rate before correction for water) was calculated using formula (2). The remaining rate after correction for water was also calculated from the remaining rate before correction for water using formula (3), taking into account the moisture permeability of the vessel. Peptides 10 and 11 synthesized in Example 2 were weighed and dissolved in phosphate buffer (pH 7.0) to prepare 1.0 mM peptide solutions. Each solution was filtered with a Chromatdisk (product of Merck Millipore. Millex-GV, 0.22 μm). Each filtrate was diluted to 100 μM with phosphate buffer (pH 7.0) and dispensed into a tube (Protein LoBind Tube by Eppendorf Co.). The prepared peptide solutions were incubated for one month or 2 months in a 40° C. thermostatic bath to obtain stored samples. A simultaneously prepared sample among the peptide solutions that was not stored was used as a standard sample (initial sample). The standard sample and the stored samples were stored at -30° C. until sample analysis. The remaining rate after correction for water for each peptide among the stored samples was measured in the same manner as Example 4, and the results are shown in Table 8.

In series [2] the target is T1, VPAC1 receptor (UniProt P32241 31-457, limits assumed).
T1 sequence (looked up): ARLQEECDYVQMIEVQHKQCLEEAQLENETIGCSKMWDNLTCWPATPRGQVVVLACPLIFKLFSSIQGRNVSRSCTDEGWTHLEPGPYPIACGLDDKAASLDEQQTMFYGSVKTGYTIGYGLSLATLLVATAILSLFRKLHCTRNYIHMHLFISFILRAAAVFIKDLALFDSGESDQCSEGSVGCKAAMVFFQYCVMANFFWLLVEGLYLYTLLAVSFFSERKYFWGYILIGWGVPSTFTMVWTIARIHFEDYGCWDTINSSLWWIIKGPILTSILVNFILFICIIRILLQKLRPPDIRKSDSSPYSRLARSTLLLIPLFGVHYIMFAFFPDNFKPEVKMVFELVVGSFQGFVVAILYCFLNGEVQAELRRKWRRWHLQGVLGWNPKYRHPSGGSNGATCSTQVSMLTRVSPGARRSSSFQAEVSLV
Briefly: cell-based or functional assay.

Series [3] deals with T2, PAC1 receptor (UniProt P41586 21-468, limits assumed).
T2 sequence (looked up): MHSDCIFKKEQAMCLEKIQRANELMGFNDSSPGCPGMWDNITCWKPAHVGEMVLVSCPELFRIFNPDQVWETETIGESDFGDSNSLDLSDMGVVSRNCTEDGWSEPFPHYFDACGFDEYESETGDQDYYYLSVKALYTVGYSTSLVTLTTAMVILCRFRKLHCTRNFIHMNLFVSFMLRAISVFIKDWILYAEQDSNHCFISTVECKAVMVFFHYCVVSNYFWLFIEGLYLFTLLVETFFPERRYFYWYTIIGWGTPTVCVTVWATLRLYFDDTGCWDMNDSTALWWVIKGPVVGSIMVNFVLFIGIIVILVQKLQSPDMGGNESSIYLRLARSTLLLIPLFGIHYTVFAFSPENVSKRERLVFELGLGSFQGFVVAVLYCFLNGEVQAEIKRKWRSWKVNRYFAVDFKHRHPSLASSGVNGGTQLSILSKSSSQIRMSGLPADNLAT
Briefly: cell-based or functional assay.

The mark [4] stands for this setting: Table 8, measured as in Example 4.

Turning to `CCCC[C@H](NC(=O)[C@H](CCC(N)=O)NC(=O)[C@H](CCCCN)NC(=O)[C@H](CCCNC(=N)N)NC(=O)[C@H](Cc1ccc(O)cc1)NC(=O)[C@H](CCCNC(=N)N)NC(=O)[C@H](CO)NC(=O)[C@H](Cc1ccc(O)cc1)NC(=O)[C@H](CO)NC(=O)[C@H](Cc1nnn[nH]1)NC(=O)[C@@H](NC(=O)[C@H](Cc1ccccc1)NC(=O)[C@@H](NC(=O)CNC(=O)[C@H](Cc1nnn[nH]1)NC(=O)[C@H](CO)NC(=O)[C@H](Cc1c[nH]cn1)NS(C)(=O)=O)[C@@H](C)CC)[C@@H](C)O)C(=O)N[C@@H](C)C(=O)N[C@H](C(=O)N[C@@H](CCCCN)C(=O)N[C@@H](CCCCN)C(=O)N[C@@H](Cc1ccc(O)cc1)C(=O)N[C@@H](CC(C)C)C(=O)N[C@@H](C)C(=O)N[C@@H](C)C(=O)N[C@H](C(=O)N[C@@H](CC(C)C)C(N)=O)C(C)C)C(C)C` [Peptide 11] (Ms-HS[Ala(1H-tetrazol-5-yl)]GIFT[Ala(1H-tetrazol-5-yl)]SYSRYRKQ[Nle]AVKKYLAAVL-NH2), in series [1] (setting [4]), the “remaining rate after correction for water, 40° C., 1 month preservation” value came out at 94.2% and the “remaining rate after correction for water, 40° C., 2 months preservation” value was found to be 88.8%. In series [1], the “stability in aqueous solution (in words), 40° C. storage” value was “stabilized to the same degree”.
As to `CC[C@H](C)[C@H](NC(=O)CNC(=O)[C@H](Cc1nnn[nH]1)NC(=O)[C@H](CO)NC(=O)[C@@H](N)Cc1c[nH]cn1)C(=O)N[C@@H](Cc1ccccc1)C(=O)N[C@H](C(=O)N[C@@H](Cc1nnn[nH]1)C(=O)N[C@@H](CO)C(=O)N[C@@H](Cc1ccc(O)cc1)C(=O)N[C@@H](CO)C(=O)N[C@@H](CCCNC(=N)N)C(=O)N[C@@H](Cc1ccc(O)cc1)C(=O)N[C@@H](CCCNC(=N)N)C(=O)N[C@@H](CCCCN)C(=O)N[C@@H](CCC(N)=O)C(=O)N[C@@H](CCSC)C(=O)N[C@@H](C)C(=O)N[C@H](C(=O)N[C@@H](CCCCN)C(=O)N[C@@H](CCCCN)C(=O)N[C@@H](Cc1ccc(O)cc1)C(=O)N[C@@H](CC(C)C)C(=O)N[C@@H](C)C(=O)N[C@@H](C)C(=O)N[C@H](C(=O)N[C@@H](CC(C)C)C(N)=O)C(C)C)C(C)C)[C@@H](C)O` [Peptide 5] (H-HS[Ala(1H-tetrazol-5-yl)]GIFT[Ala(1H-tetrazol-5-yl)]SYSRYRKQMAVKKYLAAVL-NH2), in series [1] (Table 4, HPLC conditions 1), the “remaining rate after correction for water, 40° C., 1 month preservation” value is 94.7% and the “remaining rate after correction for water, 40° C., 2 months preservation” value stood at 85.6%. Also, the “stability in aqueous solution (in words), 40° C. storage” value in series [1] was “further increased stability over peptide 3 and peptide 4”.

B1: Peptide 32 (peptide)
peptide: Ac-HS[Ala(1H-tetrazol-5-yl)]AIFT[Ala(1H-tetrazol-5-yl)]SYSRYRKQAAVKKYLAAVL-NH2
SMILES: CC[C@H](C)[C@H](NC(=O)[C@H](C)NC(=O)[C@H](Cc1nnn[nH]1)NC(=O)[C@H](CO)NC(=O)[C@H](Cc1c[nH]cn1)NC(C)=O)C(=O)N[C@@H](Cc1ccccc1)C(=O)N[C@H](C(=O)N[C@@H](Cc1nnn[nH]1)C(=O)N[C@@H](CO)C(=O)N[C@@H](Cc1ccc(O)cc1)C(=O)N[C@@H](CO)C(=O)N[C@@H](CCCNC(=N)N)C(=O)N[C@@H](Cc1ccc(O)cc1)C(=O)N[C@@H](CCCNC(=N)N)C(=O)N[C@@H](CCCCN)C(=O)N[C@@H](CCC(N)=O)C(=O)N[C@@H](C)C(=O)N[C@@H](C)C(=O)N[C@H](C(=O)N[C@@H](CCCCN)C(=O)N[C@@H](CCCCN)C(=O)N[C@@H](Cc1ccc(O)cc1)C(=O)N[C@@H](CC(C)C)C(=O)N[C@@H](C)C(=O)N[C@@H](C)C(=O)N[C@H](C(=O)N[C@@H](CC(C)C)C(N)=O)C(C)C)C(C)C)[C@@H](C)O
In the case of B1, in series [2], the “EC50 (VPAC1R), cAMP inducing effect” value came to 0.076 nM. Also, in series [3], the “EC50 (PAC1R), cAMP inducing effect” value amounted to 0.148 nM.

B2: Peptide 31 (peptide)
peptide: Ms-HS[Ala(1H-tetrazol-5-yl)]AIFT[Ala(1H-tetrazol-5-yl)]SYSRYRKQAAVKKYLAAVL-NH2
SMILES: CC[C@H](C)[C@H](NC(=O)[C@H](C)NC(=O)[C@H](Cc1nnn[nH]1)NC(=O)[C@H](CO)NC(=O)[C@H](Cc1c[nH]cn1)NS(C)(=O)=O)C(=O)N[C@@H](Cc1ccccc1)C(=O)N[C@H](C(=O)N[C@@H](Cc1nnn[nH]1)C(=O)N[C@@H](CO)C(=O)N[C@@H](Cc1ccc(O)cc1)C(=O)N[C@@H](CO)C(=O)N[C@@H](CCCNC(=N)N)C(=O)N[C@@H](Cc1ccc(O)cc1)C(=O)N[C@@H](CCCNC(=N)N)C(=O)N[C@@H](CCCCN)C(=O)N[C@@H](CCC(N)=O)C(=O)N[C@@H](C)C(=O)N[C@@H](C)C(=O)N[C@H](C(=O)N[C@@H](CCCCN)C(=O)N[C@@H](CCCCN)C(=O)N[C@@H](Cc1ccc(O)cc1)C(=O)N[C@@H](CC(C)C)C(=O)N[C@@H](C)C(=O)N[C@@H](C)C(=O)N[C@H](C(=O)N[C@@H](CC(C)C)C(N)=O)C(C)C)C(C)C)[C@@H](C)O
With B2, the “EC50 (VPAC1R), cAMP inducing effect” value in series [2] is 0.035 nM. In addition, the “EC50 (PAC1R), cAMP inducing effect” value in series [3] was 0.034 nM.

B3: Peptide 29 (peptide)
peptide: HSXGIFTXAYSRYRKQLAVKKYLAAVL
modifications: N-terminal mesyl (Ms-); Tz (aspartic acid with carboxyl group replaced by tetrazole) at positions 3 and 8; C-terminal amide (NH2)
As for B3, the “EC50 (VPAC1R), cAMP inducing effect” value in series [2] amounted to 0.09 nM. In series [3], the “EC50 (PAC1R), cAMP inducing effect” value was found to be 0.025 nM.

B4: Peptide 30 (peptide)
peptide: HSXAIFTXSYSRYRKQLAVKKYLAAVL
modifications: N-terminal mesyl (Ms-); Tz (aspartic acid with carboxyl group replaced by tetrazole) at positions 3 and 8; C-terminal amide (NH2)
On to B4, for which, in series [2], the “EC50 (VPAC1R), cAMP inducing effect” value was found to be 0.057 nM. Further, in series [3], the “EC50 (PAC1R), cAMP inducing effect” value amounted to 0.032 nM.

B5: Peptide 33 (peptide)
peptide: Ac-HA[Ala(1H-tetrazol-5-yl)]AIFT[Ala(1H-tetrazol-5-yl)]SYSRYRKQAAVKKYLAAVL-NH2
SMILES: CC[C@H](C)[C@H](NC(=O)[C@H](C)NC(=O)[C@H](Cc1nnn[nH]1)NC(=O)[C@H](C)NC(=O)[C@H](Cc1c[nH]cn1)NC(C)=O)C(=O)N[C@@H](Cc1ccccc1)C(=O)N[C@H](C(=O)N[C@@H](Cc1nnn[nH]1)C(=O)N[C@@H](CO)C(=O)N[C@@H](Cc1ccc(O)cc1)C(=O)N[C@@H](CO)C(=O)N[C@@H](CCCNC(=N)N)C(=O)N[C@@H](Cc1ccc(O)cc1)C(=O)N[C@@H](CCCNC(=N)N)C(=O)N[C@@H](CCCCN)C(=O)N[C@@H](CCC(N)=O)C(=O)N[C@@H](C)C(=O)N[C@@H](C)C(=O)N[C@H](C(=O)N[C@@H](CCCCN)C(=O)N[C@@H](CCCCN)C(=O)N[C@@H](Cc1ccc(O)cc1)C(=O)N[C@@H](CC(C)C)C(=O)N[C@@H](C)C(=O)N[C@@H](C)C(=O)N[C@H](C(=O)N[C@@H](CC(C)C)C(N)=O)C(C)C)C(C)C)[C@@H](C)O
Take B5: the “EC50 (VPAC1R), cAMP inducing effect” value in series [2] was determined as 0.143 nM. In series [3], the “EC50 (PAC1R), cAMP inducing effect” value came to 0.089 nM.
